Substrate in the data set “purified protein”: O=[N+]([O-])c1ccc(O[C@H]2O[C@H](CO)[C@@H](O)[C@H](O)[C@H]2O)cc1
As to the kind of experiment: purified protein. Conditions: 0-25 mM substrate, sodium phosphate pH 5.5, 37°C (assay 'as above'), partially purified enzyme.

Substrate in data set [1]: OC[C@H]1O[C@@](CO)(O[C@H]2O[C@H](CO)[C@@H](O)[C@H](O)[C@H]2O)[C@@H](O)[C@@H]1O
The data set can be described thus: glucose release, glucose oxidase-peroxidase, Lineweaver-Burk. The class given is biochemical, Apis cerana. Conditions: 0-20 mM substrate, sodium phosphate pH 5.5, 37°C (assay 'as above'), partially purified enzyme.

For orientation: Km means the concentration of substrate that gives half-maximal velocity. Usually kcat stands for the maximal rate divided by the concentration of active sites.

B1: rAciHBGase II-(His)6 (Apis cerana indica) (protein)
chain: FRATITVPCLLLVASLVNSVDVNWYKNALVYQIYPRSFQDSNGDGIGDLNGITARIDHIADIGAQALWLSPIYKSPQVDFGYDISNFTDVDPDYGTLADFDRLVRRAKTLGLKVILDFVPNHSSHEHPWFKKSVQRIKPYDEYYVWRDARIVNGTRQPPNNWLSVFWGSAWEWNDVRQQYYLHQFAAGQPDLNYRSAALDQEMKNVLTFWMDRGVDGFRIDAINHMFEDKRLLDEPSANRTDLSKDDYESLVHVYTRDQNETYDVSRSWRNLMDEHSNRTNSDPRMILTEAYTEFNLTVKYYKSGSTVPFNFMFITDLNNQSTASDFKQLIDRWVGNVPNGSVTNWVSGNHDNHRVASRFGRQRADEILMLTLTLPGIGVVYNGDEIGMEDRPFTYAETVDPAGCNAGPAKYYLKSRDPERTPYQWDNSTSAGFSDRNKTWLPVNDNSRSLNLAAQKKEYYSHYVAFKSMSYLKKQPVIANGSLEVDVIDGKVLSVKRKLGNDTVIVMVNFSKNPVTINMSTLHPPADLVVYANNVIGSGLSHGNWIYPTSMTIPGSNSAIFTNYKLYWRYWQGVDGL
notes: full-length cDNA (1,740 bp, 579 residues) in pPICZalphaA (EcoRI/KpnI), secreted from Pichia pastoris GS115, C-terminal His6 kept, partially purified by HisTrap, ~73 kDa
Take B1: in “purified protein”, the Michaelis-Menten constant (Km) is 4.20 ± 0.18 mM and the kcat was 1.89 ± 0.11 s⁻¹. Moreover, in data set [1], the Km was found to be 15.3 ± 0.87 mM and the kcat is 845.0 ± 0.00 s⁻¹.

Source of the values: paper PMC3599193, “Expression of a secretory α-glucosidase II from Apis cerana indica in Pichia pastoris and its characterization” (BMC Biotechnology, 2013).
